Results published in article PMC10397247.

Legend:
Experiment in all cases: two-hybrid library CCmax;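 note: natural log of median RNA to DNA barcode read ratio; higher means stronger binding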
[1] = target: T1, 4H2713-AA; settings: mean of both orientations
T1 chain: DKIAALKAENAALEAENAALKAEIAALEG

[2] = target: T2, 4H2248-AA; settings: mean of both orientations
T2 chain: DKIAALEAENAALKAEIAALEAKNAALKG

[3] = target: T3, 4H3102-AA; settings: mean of both orientations
T3 chain: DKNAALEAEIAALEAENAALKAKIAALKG

[4] = target: T4, 4H497-AA; settings: mean of both orientations
T4 chain: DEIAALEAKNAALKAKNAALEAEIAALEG

[5] = target: T5, 4H675-AA; settings: mean of both orientations
T5 chain: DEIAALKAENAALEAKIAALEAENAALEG

[6] = target: T6, 4H2948-AA; settings: mean of both orientations
T6 chain: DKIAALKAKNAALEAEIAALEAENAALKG

[7] = target: T7, 4H3417-AA; settings: mean of both orientations
T7 chain: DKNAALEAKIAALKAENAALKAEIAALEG

[8] = target: T8, 4H1854-AA; settings: mean of both orientations
T8 chain: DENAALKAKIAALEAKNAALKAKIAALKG

[9] = target: T9, 4H3666-AA; settings: mean of both orientations
T9 chain: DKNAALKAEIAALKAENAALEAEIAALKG

[10] = target: T10, 4H146-AA; settings: mean of both orientations
T10 chain: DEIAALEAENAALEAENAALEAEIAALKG

[11] = target: T11, 4H2742-AA
T11 chain: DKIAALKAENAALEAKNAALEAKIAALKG

[12] = target: T12, 4H428-AA; settings: mean of both orientations
T12 chain: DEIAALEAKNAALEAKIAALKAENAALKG

[13] = target: T13, 4H656-AA; settings: mean of both orientations
T13 chain: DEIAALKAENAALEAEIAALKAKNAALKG

[14] = target: T14, 4H3446-AA; settings: mean of both orientations
T14 chain: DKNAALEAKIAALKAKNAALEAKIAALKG

[15] = target: T15, 4H3939-AA; settings: mean of both orientations
T15 chain: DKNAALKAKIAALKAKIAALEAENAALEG

[16] = target: T16, 4H3920-AA; settings: mean of both orientations
T16 chain: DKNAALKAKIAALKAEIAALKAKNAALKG

[17] = target: T17, 4H3029-AA; settings: mean of both orientations
T17 chain: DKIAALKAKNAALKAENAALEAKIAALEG

[18] = target: T18, 4H1809-AA; settings: mean of both orientations
T18 chain: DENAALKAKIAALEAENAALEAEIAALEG

[19] = target: T19, 4H3628-AA; settings: mean of both orientations
T19 chain: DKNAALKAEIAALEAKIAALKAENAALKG

[20] = target: T20, 4H3591-AA; settings: mean of both orientations
T20 chain: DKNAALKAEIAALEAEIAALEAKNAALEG

[21] = target: T21, 4H1391-AA
T21 chain: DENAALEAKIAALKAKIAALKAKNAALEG

[22] = target: T22, 4H391-AA; settings: mean of both orientations
T22 chain: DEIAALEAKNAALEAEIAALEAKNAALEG

[23] = target: T23, 4H3121-AA; settings: mean of both orientations
T23 chain: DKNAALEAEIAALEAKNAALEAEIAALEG

[24] = target: T24, 4H3066-AA; settings: mean of both orientations
T24 chain: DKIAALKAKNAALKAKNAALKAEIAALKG

[25] = target: T25, 4H478-AA; settings: mean of both orientations
T25 chain: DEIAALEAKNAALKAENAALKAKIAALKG

[26] = target: T26, 4H971-AA; settings: mean of both orientations
T26 chain: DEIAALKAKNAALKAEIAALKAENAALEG

[27] = target: T27, 4H189-AA; settings: mean of both orientations
T27 chain: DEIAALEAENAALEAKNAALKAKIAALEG

[28] = target: T28, 4H3709-AA; settings: mean of both orientations
T28 chain: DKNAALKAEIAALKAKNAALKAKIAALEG

[29] = target: T29, 4H2991-AA; settings: mean of both orientations
T29 chain: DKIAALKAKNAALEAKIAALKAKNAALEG

[30] = target: T30, 4H2283-AA; settings: mean of both orientations
T30 chain: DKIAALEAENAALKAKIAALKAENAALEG

interaction score [1]: -1.47
interaction score [2]: -1.32
interaction score [3]: -1.1
interaction score [4]: -1.59
interaction score [5]: -1.62
interaction score [6]: -1.19
interaction score [7]: -1.93
interaction score [8]: -1.81
interaction score [9]: -1.8
interaction score [10]: -1.65
interaction score [11]: -1.48
interaction score [12]: -1.77
interaction score [13]: -1.09
interaction score [14]: -1.64
interaction score [15]: -1.09
interaction score [16]: -0.296
interaction score [17]: -1.41
interaction score [18]: -0.868
interaction score [19]: 0.211
interaction score [20]: 2.15
interaction score [21]: -0.77
interaction score [22]: -1.36
interaction score [23]: -1.32
interaction score [24]: -1.99
interaction score [25]: -1.53
interaction score [26]: -1.37
interaction score [27]: -1.54
interaction score [28]: -1.44
interaction score [29]: -2.12
interaction score [30]: -1.61
Binder: DENAALEAKIAALKAKIAALKAKNAALEG [4H1391-AA]
